Assay results published in the supplement of paper PMC10567573.

B1: FAM189A2 (parent)
chain: CALNALTTTVCLVAAALRYLQIFA

Variants of: B1
Experiment: protein stability index of a GFP-peptide fusion (GPS, HEK-293T) (PSI 1-6); higher = more stable
Conditions: c terminus: a fixed tail appended
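Also: lentivirally expressed fusions sorted by FACS into six bins by GFP to DsRed ratio, PSI derived from sequencing read proportions per bin multiplied by bin number.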

In order of rising protein stability index:
1. PALNALTTTVCLVAAALRYLQIFA  1.11
2. CALNALTTTVCLVAAWLRYLQIFA  1.55
3. LALNALTTTVCLVAAALRYLQIFA  1.59
4. CAINALTTTVCLVAAALRYLQIFA  1.61
5. CAWNALTTTVCLVAAALRYLQIFA  1.62
6. CALNAKTTTVCLVAAALRYLQIFA  1.77
7. CALAALTTTVCLVAAALRYLQIFA  1.84
8. VALNALTTTVCLVAAALRYLQIFA  1.85
9. CALNALTGTVCLVAAALRYLQIFA  1.91
10. CAKNALTTTVCLVAAALRYLQIFA  1.92
11. CALNVLTTTVCLVAAALRYLQIFA  1.92
12. CALNALTTTVCLVAAALRYLQAFA  1.99
13. CALNALFTTVCLVAAALRYLQIFA  2.06
14. CALNALTTTVCLSAAALRYLQIFA  2.06
15. CALNALTTTVCLVAANLRYLQIFA  2.1
16. CALNALDTTVCLVAAALRYLQIFA  2.18
17. CALNALTTTVCLVAAALRYLQITA  2.22
18. CALNFLTTTVCLVAAALRYLQIFA  2.29
19. CANNALTTTVCLVAAALRYLQIFA  2.3
20. CALNALTTTVCLVAAALRRLQIFA  2.4
21. CALNALTTTVCLVAAALRYGQIFA  2.41
22. CALNALTTTVCLVAAALRYLQYFA  2.44
23. CALNALTTTVCLVAWALRYLQIFA  2.59
24. CAVNALTTTVCLVAAALRYLQIFA  2.62
25. CALNALTSTVCLVAAALRYLQIFA  2.63
26. CALNALTTTVCLYAAALRYLQIFA  2.68
27. CALNALTRTVCLVAAALRYLQIFA  2.69
28. CALNPLTTTVCLVAAALRYLQIFA  2.7
29. CALNALTTTVCLVACALRYLQIFA  2.71
30. CALNALTTTVCLVAAALRYIQIFA  2.76
31. CALNLLTTTVCLVAAALRYLQIFA  2.77
32. CALNALTTTVCLKAAALRYLQIFA  2.78
33. CALFALTTTVCLVAAALRYLQIFA  2.81
34. CALNALTTTVCLVAAALRPLQIFA  2.86
35. CALNALTTTVCLNAAALRYLQIFA  2.88
36. CALNALTTTVCLVAGALRYLQIFA  2.9
37. CALNALTTTVCLIAAALRYLQIFA  2.9
38. CALNALTPTVCLVAAALRYLQIFA  2.92
39. CALNALTTTVCLVAAALRYLQIKA  2.94
40. YALNALTTTVCLVAAALRYLQIFA  2.99
41. CALNALTTTVCLAAAALRYLQIFA  2.99
42. CALRALTTTVCLVAAALRYLQIFA  3.01
43. CALNALATTVCLVAAALRYLQIFA  3.07
44. CALNALTTTVCLVAALLRYLQIFA  3.09
45. CPLNALTTTVCLVAAALRYLQIFA  3.11
46. CAANALTTTVCLVAAALRYLQIFA  3.13
47. CALNALTTTVCLVADALRYLQIFA  3.14
48. CALNALTTTVCLVANALRYLQIFA  3.15
49. CAENALTTTVCLVAAALRYLQIFA  3.25
50. CALNALTTTVCLVAAALRALQIFA  3.25
51. CALNALTTTVCLVAAALRNLQIFA  3.25
52. CALNALTTTVCLVAAALRYLQICA  3.26
53. CADNALTTTVCLVAAALRYLQIFA  3.27
54. CALNAYTTTVCLVAAALRYLQIFA  3.27
55. CALNALTTTVCLVAAELRYLQIFA  3.27
56. CALNALTTTVCLVAAALRYMQIFA  3.29
57. CALNALTATVCLVAAALRYLQIFA  3.34
58. CALNALTITVCLVAAALRYLQIFA  3.39
59. CALNALTTTVCLVAAALRCLQIFA  3.41
60. CALNALTTTVCLVAAALRYLQIPA  3.42
61. CALNALNTTVCLVAAALRYLQIFA  3.42
62. CNLNALTTTVCLVAAALRYLQIFA  3.43
63. CALNALTTTVCLVAAALRYLQILA  3.45
64. CALNALTTTVCLVAAALRSLQIFA  3.45
65. SALNALTTTVCLVAAALRYLQIFA  3.48
66. CALNALTFTVCLVAAALRYLQIFA  3.49
67. CAFNALTTTVCLVAAALRYLQIFA  3.52
68. CALNALCTTVCLVAAALRYLQIFA  3.6
69. CALNALITTVCLVAAALRYLQIFA  3.6
70. CALNALTTTVCLVAAALRYLQIEA  3.61
71. NALNALTTTVCLVAAALRYLQIFA  3.61
72. CAPNALTTTVCLVAAALRYLQIFA  3.65
73. CALNALTTTVCLVAMALRYLQIFA  3.68
74. CALNYLTTTVCLVAAALRYLQIFA  3.68
75. CALNALTTTVCLVAAALRILQIFA  3.74
76. CALNALTTTVCLVAAALRYLQIIA  3.76
77. CALNALTTTVCLVAAALRYLQMFA  3.76
78. CALNALTNTVCLVAAALRYLQIFA  3.77
79. CALNALTTTVCLVAAHLRYLQIFA  3.78
80. CALNQLTTTVCLVAAALRYLQIFA  3.79
81. CALNALTTTVCLVAAALRYLQWFA  3.83
82. CALNALTTTVCLVAAALRYTQIFA  3.88
83. CALNALTTTVCLWAAALRYLQIFA  3.96
84. CALNALTTTVCLVAAALRYLQPFA  4.03
85. CALNALTTTVCLVAACLRYLQIFA  4.04
86. CALNALTTTVCLVAAALRYLQIMA  4.05
87. CACNALTTTVCLVAAALRYLQIFA  4.07
88. CALNAMTTTVCLVAAALRYLQIFA  4.19
89. CTLNALTTTVCLVAAALRYLQIFA  4.22
90. CALNALTTTVCLVAAKLRYLQIFA  4.22
91. CALNALTTTVCLVAAILRYLQIFA  4.22
92. CALNALTTTVCLVAAALRYLQINA  4.28
93. CDLNALTTTVCLVAAALRYLQIFA  4.37
94. CALNALTTTVCLVAAALRYLQIHA  4.92
